Results: patent US20120316071A1 (published 2012)

T1: rHuman Erythropoietin R/Fc Chimera, CF (R&D Systems Cat#963-ER) (human, UniProt P19235 25-250)
T1 construct: Bought recombinant Fc chimera; also called EPO R; EPO R/Fc; Fc part of the bought chimera not given
T1 sequence (looked up): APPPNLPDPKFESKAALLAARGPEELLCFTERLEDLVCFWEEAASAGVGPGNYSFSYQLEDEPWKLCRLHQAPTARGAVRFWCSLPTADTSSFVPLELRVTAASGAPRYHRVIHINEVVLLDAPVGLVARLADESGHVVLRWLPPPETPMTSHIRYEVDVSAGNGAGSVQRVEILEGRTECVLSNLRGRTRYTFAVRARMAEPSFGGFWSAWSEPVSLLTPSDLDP

T2: rHuman Erythropoietin R/Fc Chimera, CF (human, UniProt P19235 25-250)
T2 construct: Bought from R&D Systems; also called EPO R; EPO R/Fc; not shown: Fc of the bought chimera
T2 sequence (looked up): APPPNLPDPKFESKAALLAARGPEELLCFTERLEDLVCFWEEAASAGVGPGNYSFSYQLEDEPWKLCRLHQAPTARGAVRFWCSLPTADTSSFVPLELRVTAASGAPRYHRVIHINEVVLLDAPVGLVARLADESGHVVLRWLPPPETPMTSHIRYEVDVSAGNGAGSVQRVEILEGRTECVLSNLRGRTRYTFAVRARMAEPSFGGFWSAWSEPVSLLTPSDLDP


Tests used:
[1] = target: T3, rHuman CD44/Fc Chimera, CF (R&D Systems Cat#3660-CD) (human, UniProt P16070 21-220); experiment: ECL multispot (MSD) assay, antigen spotted on plate, 10 nM Fab;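 also: bound Fab detected with a TAG-labelled detection antibody (1 h, 20 °C), electrochemiluminescence read and compared with each well's blank, signal/blank of 4 or above scored as hit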
T3 construct: Bought recombinant Fc chimera; Fc part of the bought chimera not given

[2] = target: T1, rHuman Erythropoietin R/Fc Chimera, CF …; experiment: as above
[3] = target: T4, rHuman IGF-1 sR, CF (R&D Systems Cat#391-GR) (human, UniProt P08069 31-932); experiment: as above
T4 construct: Bought soluble receptor; also called insulin-like growth factor-1 soluble receptor

[4] = target: T5, Recombinant Human DLL4 (R&D Systems Cat#1506-D4/CF) (human, UniProt Q9NR61 27-524); experiment: as above
T5 construct: Bought recombinant protein; also called delta-like protein 4; rHuman DLL4

[5] = target: T6, rHuman EGF R/Fc Chimera, CF (R&D Systems Cat#344-ER) (human, UniProt P00533 25-645); experiment: as above
T6 construct: Bought recombinant Fc chimera; also called epidermal growth factor receptor; Fc part of the bought chimera not given

[6] = target: T7, rHuman ErbB2/Fc Chimera, CF (R&D Systems Cat#1129-ER) (human, UniProt P04626 23-652); experiment: as above
T7 construct: Bought recombinant Fc chimera; also called human epidermal growth factor 2 receptor; Fc part of the bought chimera not given

[7] = target: T8, rHuman Notch-1/Fc Chimera, CF (R&D Systems Cat#3647-TK) (human, UniProt P46531 19-526); experiment: as above
T8 construct: Bought recombinant Fc chimera; Fc part of the bought chimera not given

[8] = target: T9, rHuman P-Cadherin/Fc Chimera, CF (R&D Systems Cat#861-PC) (human, UniProt P22223 108-654); experiment: as above
T9 construct: Bought recombinant Fc chimera; Fc part of the bought chimera not given

[9] = target: T10, rHuman HGF R/c-MET/Fc Chimera, CF (R&D Systems Cat#358-MT/CF) (human, UniProt P08581 25-932); experiment: as above
T10 construct: Bought recombinant Fc chimera; also called HGF R/Fc; hepatocyte growth factor receptor; Fc part of the bought chimera not given
T10 sequence (P08581 25-932, change not shown): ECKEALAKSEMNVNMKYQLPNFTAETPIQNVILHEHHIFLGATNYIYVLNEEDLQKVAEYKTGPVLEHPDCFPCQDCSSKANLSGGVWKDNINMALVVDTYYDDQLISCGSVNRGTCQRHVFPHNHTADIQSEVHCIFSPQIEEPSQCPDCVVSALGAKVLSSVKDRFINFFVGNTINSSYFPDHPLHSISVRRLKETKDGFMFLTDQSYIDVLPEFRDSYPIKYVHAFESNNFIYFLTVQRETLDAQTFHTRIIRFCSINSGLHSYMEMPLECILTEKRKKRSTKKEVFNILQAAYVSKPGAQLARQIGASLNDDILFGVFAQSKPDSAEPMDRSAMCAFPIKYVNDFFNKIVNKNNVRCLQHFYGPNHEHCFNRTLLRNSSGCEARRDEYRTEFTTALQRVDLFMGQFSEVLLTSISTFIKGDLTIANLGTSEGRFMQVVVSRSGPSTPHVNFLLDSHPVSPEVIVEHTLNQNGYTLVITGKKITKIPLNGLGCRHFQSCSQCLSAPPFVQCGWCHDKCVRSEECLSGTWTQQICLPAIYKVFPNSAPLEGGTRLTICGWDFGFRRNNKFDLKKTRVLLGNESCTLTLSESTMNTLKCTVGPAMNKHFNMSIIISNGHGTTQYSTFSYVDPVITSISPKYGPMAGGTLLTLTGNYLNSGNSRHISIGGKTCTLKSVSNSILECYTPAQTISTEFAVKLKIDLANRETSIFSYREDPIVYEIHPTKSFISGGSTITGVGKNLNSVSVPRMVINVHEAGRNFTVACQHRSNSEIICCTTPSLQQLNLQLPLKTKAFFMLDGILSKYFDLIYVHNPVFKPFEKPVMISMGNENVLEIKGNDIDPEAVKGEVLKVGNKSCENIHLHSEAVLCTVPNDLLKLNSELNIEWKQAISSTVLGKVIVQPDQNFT

[10] = target: T11, rHuman ErbB2/Fc Chimera, CF (human, UniProt P04626 23-652); experiment: ECL Multispot (MSD) assay; antigen spotted on plate, Fab in solution;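 also: fab bound 1 h at 20 °C, detected by TAG-labelled antibody electrochemiluminescence, signal relative to each well's blank, ratio of 4 or more marks a hit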
T11 construct: Bought from R&D Systems; also called human epidermal growth factor 2 receptor; not shown: Fc of the bought chimera

[11] = target: T12, rHuman EGF R/Fc Chimera, CF (human, UniProt P00533 25-645); experiment: as above
T12 construct: Bought from R&D Systems; also called epidermal growth factor receptor; not shown: Fc of the bought chimera

[12] = target: T13, rHuman Notch-1/Fc Chimera, CF (human, UniProt P46531 19-526); experiment: as above
T13 construct: Bought from R&D Systems; not shown: Fc of the bought chimera

[13] = target: T2, rHuman Erythropoietin R/Fc Chimera, CF; experiment: as above
[14] = target: T14, rHuman P-Cadherin/Fc Chimera, CF (human, UniProt P22223 108-654); experiment: as above
T14 construct: Bought from R&D Systems; not shown: Fc of the bought chimera

[15] = target: T15, rHuman IGF-1 sR, (IGF-1 sR), CF (human, UniProt P08069 31-932); experiment: as above
T15 construct: Bought from R&D Systems; also called insulin-like growth factor-1 soluble receptor

[16] = target: T16, Recombinant Human DLL4 (human, UniProt Q9NR61 27-524); experiment: as above
T16 construct: Bought from R&D Systems; also called delta-like protein 4; rHuman DLL4

[17] = target: T17, rHuman CD44/Fc Chimera, CF (human, UniProt P16070 21-220); experiment: as above
T17 construct: Bought from R&D Systems; not shown: Fc of the bought chimera

[18] = target: T18, rHuman HGF R/c-MET/Fc Chimera, CF (human, UniProt P08581 25-932); experiment: as above
T18 construct: Bought from R&D Systems; also called HGF R/Fc; hepatocyte growth factor receptor; not shown: Fc of the bought chimera
T18 sequence (P08581 25-932, change not shown): as above

ECL signal [1]	ECL signal [2]	ECL signal [3]	ECL signal [4]	ECL signal [5]	ECL signal [6]	ECL signal [7]	ECL signal [8]	ECL signal [9]	ECL signal [10]	ECL signal [11]	ECL signal [12]	ECL signal [13]	ECL signal [14]	ECL signal [15]	ECL signal [16]	ECL signal [17]	ECL signal [18]	Binder
439	477	417	112000	302	304	365	232	388										Fab VH1-46_IGHD6-6*01_IGHJ1*01 S102A/S103P/S104F/H111F S57A & L6_IGKJ1*01 (Fab, V domains shown, Fab (CH1 with His6/Flag tags from Plasmid A, kappa CL from Plasmid C); also called APFF S57A) VH: QVQLVQSGAEVKKPGASVKVSCKASGYTFTSYYMHWVRQAPGQGLEWMGIINPSGGATSYAQKFQGRVTMTRDTSTSTVYMELSSLRSEDTAVYYCAREEYAPFSAEYFQFWGQGTLVTVSS VL: not shown
362	468	362	169000	340	378	383	353	369										Fab VH1-46_IGHD6-6*01_IGHJ1*01 S102A/S103P/S104F/H111F N52A & L6_IGKJ1*01 (Fab, V domains shown, Fab (CH1 with His6/Flag tags from Plasmid A, kappa CL from Plasmid C); also called APFF N52A) VH: QVQLVQSGAEVKKPGASVKVSCKASGYTFTSYYMHWVRQAPGQGLEWMGIIAPSGGSTSYAQKFQGRVTMTRDTSTSTVYMELSSLRSEDTAVYYCAREEYAPFSAEYFQFWGQGTLVTVSS VL: not shown
318	329	271	47400	384	320	289	294	304										Fab VH1-46_IGHD6-6*01_IGHJ1*01 S102A/S103P/S104F/H111F T58A & L6_IGKJ1*01 (Fab, V domains shown, Fab (CH1 with His6/Flag tags from Plasmid A, kappa CL from Plasmid C); also called APFF T58A) VH: QVQLVQSGAEVKKPGASVKVSCKASGYTFTSYYMHWVRQAPGQGLEWMGIINPSGGSASYAQKFQGRVTMTRDTSTSTVYMELSSLRSEDTAVYYCAREEYAPFSAEYFQFWGQGTLVTVSS VL: not shown
391	380	383	159000	373	344	312	144	440										Fab VH1-46_IGHD6-6*01_IGHJ1*01 S102A/S103P/S104F/H111F I51A & L6_IGKJ1*01 (Fab, V domains shown, Fab (CH1 with His6/Flag tags from Plasmid A, kappa CL from Plasmid C); also called APFF I51A) VH: QVQLVQSGAEVKKPGASVKVSCKASGYTFTSYYMHWVRQAPGQGLEWMGIANPSGGSTSYAQKFQGRVTMTRDTSTSTVYMELSSLRSEDTAVYYCAREEYAPFSAEYFQFWGQGTLVTVSS VL: not shown
378	427	374	151000	439	203	393	390	337										Fab VH1-46_IGHD6-6*01_IGHJ1*01 S102A/S103P/S104F/H111F P53A & L6_IGKJ1*01 (Fab, V domains shown, Fab (CH1 with His6/Flag tags from Plasmid A, kappa CL from Plasmid C); also called APFF P53A) VH: QVQLVQSGAEVKKPGASVKVSCKASGYTFTSYYMHWVRQAPGQGLEWMGIINASGGSTSYAQKFQGRVTMTRDTSTSTVYMELSSLRSEDTAVYYCAREEYAPFSAEYFQFWGQGTLVTVSS VL: not shown

More lines, now with the values behind:

Binder	ECL signal [1]	ECL signal [2]	ECL signal [3]	ECL signal [4]	ECL signal [5]	ECL signal [6]	ECL signal [7]	ECL signal [8]	ECL signal [9]	ECL signal [10]	ECL signal [11]	ECL signal [12]	ECL signal [13]	ECL signal [14]	ECL signal [15]	ECL signal [16]	ECL signal [17]	ECL signal [18]
Fab VH1-46_IGHD6-6*01_IGHJ1*01 S102A/S103P/S104F/H111F G55A & L6_IGKJ1*01 (Fab, V domains shown, Fab (CH1 with His6/Flag tags from Plasmid A, kappa CL from Plasmid C); also called APFF G55A) VH: QVQLVQSGAEVKKPGASVKVSCKASGYTFTSYYMHWVRQAPGQGLEWMGIINPSAGSTSYAQKFQGRVTMTRDTSTSTVYMELSSLRSEDTAVYYCAREEYAPFSAEYFQFWGQGTLVTVSS VL: not shown	365	305	392	14500	217	474	381	426	221									
Fab VH1-46_IGHD6-6*01_IGHJ1*01 S102A/S103P/S104F/H111F (APFF) & L6_IGKJ1*01 S28G (Fab, V domains shown, Fab made in E. coli; the variable domains were cloned into Plasmid A (CH1, His and Flag tags) and Plasmid C (kappa CL); also called APFF / S28G) VH: QVQLVQSGAEVKKPGASVKVSCKASGYTFTSYYMHWVRQAPGQGLEWMGIINPSGGSTSYAQKFQGRVTMTRDTSTSTVYMELSSLRSEDTAVYYCAREEYAPFSAEYFQFWGQGTLVTVSS VL: EIVLTQSPATLSLSPGERATLSCRASQGVSSYLAWYQQKPGQAPRLLIYDASNRATGIPARFSGSGSGTDFTLTISSLEPEDFAVYYCQQRSNWPPWTFGQGTKVEIKR										334	360	324	494	491	360	183000	436	333
Fab VH1-46_IGHD6-6*01_IGHJ1*01 S102A/S103P/S104F/H111F (APFF) & L6_IGKJ1*01 S28A (Fab, V domains shown, Fab made in E. coli; the variable domains were cloned into Plasmid A (CH1, His and Flag tags) and Plasmid C (kappa CL); also called APFF / S28A) VH: QVQLVQSGAEVKKPGASVKVSCKASGYTFTSYYMHWVRQAPGQGLEWMGIINPSGGSTSYAQKFQGRVTMTRDTSTSTVYMELSSLRSEDTAVYYCAREEYAPFSAEYFQFWGQGTLVTVSS VL: EIVLTQSPATLSLSPGERATLSCRASQAVSSYLAWYQQKPGQAPRLLIYDASNRATGIPARFSGSGSGTDFTLTISSLEPEDFAVYYCQQRSNWPPWTFGQGTKVEIKR										348	351	440	424	521	378	157000	502	377
Fab VH1-46_IGHD6-6*01_IGHJ1*01 S102A/S103P/S104F/H111F (APFF) & L6_IGKJ1*01 (Fab, V domains shown, Fab made in E. coli; the variable domains were cloned into Plasmid A (CH1, His and Flag tags) and Plasmid C (kappa CL); also called APFF / parent; H:APFF & L:wt) VH: QVQLVQSGAEVKKPGASVKVSCKASGYTFTSYYMHWVRQAPGQGLEWMGIINPSGGSTSYAQKFQGRVTMTRDTSTSTVYMELSSLRSEDTAVYYCAREEYAPFSAEYFQFWGQGTLVTVSS VL: not shown										333	406			368	386	182000		432
Fab VH1-46_IGHD6-6*01_IGHJ1*01 S102A/S103P/S104F/H111F G56A & L6_IGKJ1*01 (Fab, V domains shown, Fab (CH1 with His6/Flag tags from Plasmid A, kappa CL from Plasmid C); also called APFF G56A) VH: QVQLVQSGAEVKKPGASVKVSCKASGYTFTSYYMHWVRQAPGQGLEWMGIINPSGASTSYAQKFQGRVTMTRDTSTSTVYMELSSLRSEDTAVYYCAREEYAPFSAEYFQFWGQGTLVTVSS VL: not shown	330	466	422	189000	355	279	331	214	313									
Fab VH1-46_IGHD6-6*01_IGHJ1*01 S102A/S103P/S104F/H111F I50A & L6_IGKJ1*01 (Fab, V domains shown, Fab (CH1 with His6/Flag tags from Plasmid A, kappa CL from Plasmid C); also called APFF I50A) VH: QVQLVQSGAEVKKPGASVKVSCKASGYTFTSYYMHWVRQAPGQGLEWMGAINPSGGSTSYAQKFQGRVTMTRDTSTSTVYMELSSLRSEDTAVYYCAREEYAPFSAEYFQFWGQGTLVTVSS VL: not shown	326	252	247	2670	402	369	297	313	301									
